Data reported in patent US20250075006A1 (SHANDONG SIMCERE BIOPHARMACEUTICAL, published 2025).
One block for each binder: values may come before it.

Experiments:
[1] = biological target: T1, Cyno GUCY2C ECD (his-tagged cynomolgus monkey GUCY2C protein extracellular domain fusion protein) (cynomolgus monkey, UniProt P25092 24-430 (human entry)); assay: ELISA, plate coated with monkey GUCY2C-his, OD450
T1 construct: also called monkey GUCY2C-his; monkey GUCY2C-His
T1 chain: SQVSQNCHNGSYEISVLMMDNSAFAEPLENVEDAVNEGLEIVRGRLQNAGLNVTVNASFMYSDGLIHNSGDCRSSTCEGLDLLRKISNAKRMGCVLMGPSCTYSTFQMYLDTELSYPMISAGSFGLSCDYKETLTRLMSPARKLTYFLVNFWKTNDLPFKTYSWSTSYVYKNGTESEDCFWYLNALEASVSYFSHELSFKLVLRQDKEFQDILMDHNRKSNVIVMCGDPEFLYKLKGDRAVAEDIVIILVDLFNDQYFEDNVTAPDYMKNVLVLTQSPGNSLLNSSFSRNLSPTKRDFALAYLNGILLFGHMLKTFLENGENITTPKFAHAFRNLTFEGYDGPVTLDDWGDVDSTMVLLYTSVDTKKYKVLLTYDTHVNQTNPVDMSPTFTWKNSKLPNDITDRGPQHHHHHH
Procedure: A human GUCY2C-his protein was diluted with PBS to a final concentration of 2 μg/mL and then added to a 96-well ELISA plate at 50 μL/well. The plate was sealed with a plastic film and incubated at 4° C. overnight. The next day, the plate was washed 2 times with PBST, and a blocking buffer [PBS+2% (w/w) BSA] was added for blocking at room temperature for 2 h. The blocking buffer was discarded, and the recombinant antibody and positive and negative control antibody with a starting concentration of 100 nM serially diluted by 3 folds were added at 50 μL/well. After incubation at 37° C. for 1 h, the plate was washed 3 times with PBST. A horseradish peroxidase (HRP)—labeled secondary antibody (purchased from Merck, Cat. No. AP113P) was added for incubation at 37° C. for 1 h, and the plate was washed 5 times with PBST. A TMB substrate was added at 50 μL/well for incubation at room temperature for 10 min, and then a stop solution (1.0 M HCl) was added at 50 μL/well. The OD450 nm values were read by an ELISA plate reader (Multimode Plate Reader, EnSight, purchased from Perkin Elmer).
The monkey GUCY2C-his and murine GUCY2C-his proteins were subjected to ELISA and data analysis according to the method described in Example 4.2. The recombinant antibodies Lab306-huFc, Lab322-huFc, and Lab323-huFc have a relatively good binding activity with the monkey GUCY2C-his protein. […]

[2] = biological target: T2, Human GUCY2C ECD (his-tagged human GUCY2C protein extracellular domain fusion protein) (human, UniProt P25092 24-430); assay: ELISA, plate coated with human GUCY2C-his, OD450
T2 construct: also called human GUCY2C-his; human GUCY2C-His
Procedure: To assay the binding activity of the humanized antibodies to human GUCY2C-his protein, a human GUCY2C-his protein was diluted with PBS to a final concentration of 2 μg/mL and then added to a 96-well ELISA plate at 50 μL/well. The plate was sealed with a plastic film and incubated at 4° C. overnight. The next day, the plate was washed 2 times with PBST, and a blocking buffer [PBS+2% (w/w) BSA] was added for blocking at room temperature for 2 h. The blocking buffer was discarded, and the plate was washed 2 times with PBST. An antibody to be tested or a control antibody diluted in a 1:3 gradient from a starting concentration of 100 nM was added at 50 μL/well. After incubation at 37° C. for 1 h, the plate was washed 3 times with PBST. A horseradish peroxidase (HRP)—labeled secondary antibody (purchased from Merck, Cat. No. AP113P) was added for incubation at 37° C. for 1 h, and the plate was washed 5 times with PBST. A TMB substrate was added at 50 µL/well for incubation at room temperature for 5-10 min, and then a stop solution (1.0 M HCl) was added at 50 μL/well. OD450 nm values were read using an ELISA plate reader (Multimode Plate Reader, EnSight, purchased from Perkin Elmer).

[3] = biological target: T2, Human GUCY2C ECD (his-tagged human …); assay: BLI Gator, antibody on anti-human Fc probe, antigen in solution
Procedure: (§1) Next, we measured the affinity of the recombinant antibody by another method, and the specific procedures were as follows: the binding strength of the antibody to the antigen was assayed by acquiring and analyzing the signal change of the reflection interference spectrum on the surface of the optical probe by using thin film interference technology. First, the probe was equilibrated for 300 s with HBS-T+pH 7.4 (0.02% tween) as the mobile phase. 2 μg/mL of the antibody to be tested was captured by an anti-human FC probe (purchased from ProbeLife, PL168-160003) for 240 s, and then antigen proteins with the concentration of 200 nM and diluted two-fold were injected. Kon for 300 s and Koff for 600 s. The association and dissociation processes of the antibody with the antigen protein were recorded, and finally, the chip was regenerated using Glycine pH 2.0 (purchased from GE), wherein the mobile phase was HBS-T+pH 7.4 (0.02% tween), the regeneration time was 5 s, and the assay temperature was 30° C. Finally, according to a 1:1 binding model, the data were analyzed, and the antibody-antigen binding kinetics parameters, including the association rate constant Ka, the dissociation rate constant Kd, the equilibrium dissociation constant KD, and the maximum binding signal Rmax, were fitted. The association rate (Ka), dissociation rate (Kd), and binding affinity (KD) of the recombinant antibodies with the human GUCY2C and monkey GUCY2C proteins are shown in Table 6.

[4] = biological target: T1, Cyno GUCY2C ECD (his-tagged cynomolgus …); assay: as above
Procedure: as §1

T2 sequence (P25092 other isoform, or with tags, fused parts or gaps): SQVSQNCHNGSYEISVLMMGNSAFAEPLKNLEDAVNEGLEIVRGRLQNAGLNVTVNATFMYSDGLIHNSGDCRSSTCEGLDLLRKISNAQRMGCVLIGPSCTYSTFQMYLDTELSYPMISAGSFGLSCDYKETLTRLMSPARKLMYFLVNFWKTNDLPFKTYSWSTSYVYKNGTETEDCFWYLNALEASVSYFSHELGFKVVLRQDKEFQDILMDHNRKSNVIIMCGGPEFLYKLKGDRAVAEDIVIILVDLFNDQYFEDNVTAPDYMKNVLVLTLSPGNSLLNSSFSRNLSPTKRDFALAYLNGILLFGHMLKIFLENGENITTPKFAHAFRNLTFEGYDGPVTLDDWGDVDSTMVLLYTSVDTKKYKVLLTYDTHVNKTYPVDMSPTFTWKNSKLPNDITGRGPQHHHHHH

- EC50 (read off the curve) [1]: ~0.08 nM
- EC50 (read off the curve) [2]: ~0.04 nM
- Kd [3]: 1.14 nM
- koff [3]: 0.000448 s⁻¹
- kon [3]: 391000 M⁻¹ s⁻¹
- Kd [4]: 0.998 nM
- koff [4]: 0.000486 s⁻¹
- kon [4]: 487000 M⁻¹ s⁻¹
B1: 5F9-hIgG1 (antibody, V domains shown)
VH: QVQLQQWGAGLLKPSETLSLTCAVFGGSFSGYYWSWIRQPPGKGLEWIGEINHRGNTNDNPSLKSRVTISVDTSKNQFALKLSSVTAADTAVYYCARERGYTYGNFDHWGQGTLVTVSS
VL: EIVMTQSPATLSVSPGERATLSCRASQSVSRNLAWYQQKPGQAPRLLIYGASTRATGIPARFSGSGSGTEFTLTIGSLQSEDFAVYYCQQYKTWPRTFGQGTNVEIKR
notes: also called positive control antibody

- EC50 (read off the curve) [1]: ~0.08 nM
- EC50 (read off the curve) [2]: ~0.05 nM
- Kd [3]: 0.494 nM
- koff [3]: 0.000197 s⁻¹
- kon [3]: 400000 M⁻¹ s⁻¹
- Kd [4]: 0.256 nM
- koff [4]: 0.000138 s⁻¹
- kon [4]: 540000 M⁻¹ s⁻¹
B2: PF1608-hIgG1 (antibody, V domains shown)
VH: EVQLVESGGGLVQPGGSLRLSCAASGFTFSSYWMHWVRQAPGKGLEWIGEIKPSNELTNVHEKFKDRFTISVDKAKNSAYLQMNSLRAEDTAVYYCTRTITTTEGYWFFDVWGQGTLVTVSS
VL: DIQLTQSPSSLSASVGDRVTITCRASESVDYYGSSLLQWYQQKPGKAPKLLIYAASKLASGVPSRFSGSGSGTDFTLTISSLQPEDFATYYCQQTRKAYTFGQGTKLEIKR
notes: also called PF1608-hlgG1; positive control antibody
